Source: patent publication US20210107988A1 (Genmab, published 2021)

T1: dimeric, His-tagged, C-terminally biotinylated ECD of FcγRIIA allotype 131R (Homo sapiens (Human), UniProt P12318 36-215, C-terminally biotinylated)
T1 chain: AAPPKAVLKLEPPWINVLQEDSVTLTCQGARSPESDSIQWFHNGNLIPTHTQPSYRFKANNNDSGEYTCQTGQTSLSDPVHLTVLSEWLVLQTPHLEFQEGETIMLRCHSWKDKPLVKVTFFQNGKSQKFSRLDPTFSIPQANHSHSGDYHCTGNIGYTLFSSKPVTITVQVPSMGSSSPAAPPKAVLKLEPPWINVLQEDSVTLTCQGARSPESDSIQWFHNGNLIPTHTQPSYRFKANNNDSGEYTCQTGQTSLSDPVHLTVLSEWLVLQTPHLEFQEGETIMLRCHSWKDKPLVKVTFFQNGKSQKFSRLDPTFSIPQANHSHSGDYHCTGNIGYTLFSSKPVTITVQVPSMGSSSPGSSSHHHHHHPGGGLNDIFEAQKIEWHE

T2: dimeric, His-tagged, C-terminally biotinylated ECD of FcγRIIA allotype 131H (Homo sapiens (Human), UniProt P12318 34-215, C-terminally biotinylated)
T2 sequence: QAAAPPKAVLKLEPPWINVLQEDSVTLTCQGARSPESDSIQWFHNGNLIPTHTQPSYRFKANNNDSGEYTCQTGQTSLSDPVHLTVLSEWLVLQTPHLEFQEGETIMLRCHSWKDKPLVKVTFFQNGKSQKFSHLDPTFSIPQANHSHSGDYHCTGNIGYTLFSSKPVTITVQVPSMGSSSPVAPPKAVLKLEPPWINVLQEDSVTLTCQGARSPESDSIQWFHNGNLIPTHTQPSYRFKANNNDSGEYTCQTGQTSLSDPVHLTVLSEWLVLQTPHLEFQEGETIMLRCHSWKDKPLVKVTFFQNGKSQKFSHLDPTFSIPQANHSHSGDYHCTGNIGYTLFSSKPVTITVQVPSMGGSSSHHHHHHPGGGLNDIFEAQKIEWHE

T3: dimeric, His-tagged, C-terminally biotinylated ECD of FcγRIIB (Homo sapiens (Human), UniProt P31994 44-223, C-terminally biotinylated)
T3 construct: also called diFCGR2B-HisBAP
T3 sequence: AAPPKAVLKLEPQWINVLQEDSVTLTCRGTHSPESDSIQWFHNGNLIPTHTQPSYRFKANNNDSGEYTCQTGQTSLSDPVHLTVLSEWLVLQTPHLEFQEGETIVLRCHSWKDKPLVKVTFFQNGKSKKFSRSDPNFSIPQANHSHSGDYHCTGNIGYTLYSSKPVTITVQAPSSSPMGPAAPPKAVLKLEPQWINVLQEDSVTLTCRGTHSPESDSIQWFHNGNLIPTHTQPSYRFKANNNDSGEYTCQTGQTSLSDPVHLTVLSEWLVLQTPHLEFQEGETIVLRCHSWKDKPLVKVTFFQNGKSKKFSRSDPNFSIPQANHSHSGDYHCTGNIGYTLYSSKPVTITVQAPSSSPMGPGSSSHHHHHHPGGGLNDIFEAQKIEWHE


Columns and labels:
[1] = target: T1, dimeric, His-tagged, C-terminally …; assay: FcγR ELISA, 20 µg/mL antibody
[2] = target: T2, dimeric, His-tagged, C-terminally …; assay: FcγR ELISA, 20 µg/mL antibody
[3] = target: T3, dimeric, His-tagged, C-terminally …; assay: FcγR ELISA, 20 µg/mL antibody
[4] = target: T4, FcRnECDHis-B2M-BIO (biotinylated extracellular domain of human FcRn with a C-terminal His tag as dimer with … (human, UniProt P55899 24-297)); P61769 21-119, biotinylated (site not stated)); assay: FcRn ELISA, pH 7.4
T4 construct: Coated on Streptawell plates at 5 µg/mL; also called FcRnhsECDHis
T4 sequence (P55899 other isoform, or with tags, fused parts or gaps limits assumed, chain 1 of 2): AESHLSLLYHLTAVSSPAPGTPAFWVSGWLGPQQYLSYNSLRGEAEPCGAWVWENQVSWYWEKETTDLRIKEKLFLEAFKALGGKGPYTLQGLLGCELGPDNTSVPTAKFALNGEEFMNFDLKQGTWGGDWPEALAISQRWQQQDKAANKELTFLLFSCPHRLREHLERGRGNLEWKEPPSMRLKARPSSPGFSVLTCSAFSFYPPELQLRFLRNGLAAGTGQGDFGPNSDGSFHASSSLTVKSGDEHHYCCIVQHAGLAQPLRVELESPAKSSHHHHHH
T4 sequence (P61769 21-119 limits assumed, chain 2 of 2): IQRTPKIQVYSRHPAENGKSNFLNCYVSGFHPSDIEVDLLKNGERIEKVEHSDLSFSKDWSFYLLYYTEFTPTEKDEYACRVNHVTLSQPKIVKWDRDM

Binder	binding result [1]	binding result [2]	binding result [3]	binding result [4]
IgG1-CAMPATH-1H-E430G-K439E-Q438N (antibody, also called IgG1-Campath-E430G Q438N/K439E) heavy: QVQLQESGPGLVRPSQTLSLTCTVSGFTFTDFYMNWVRQPPGRGLEWIGFIRDKAKGYTTEYNPSVKGRVTMLVDTSKNQFSLRLSSVTAADTAVYYCAREGHTAAPFDYWGQGSLVTVSSASTKGPSVFPLAPSSKSTSGGTAALGCLVKDYFPEPVTVSWNSGALTSGVHTFPAVLQSSGLYSLSSVVTVPSSSLGTQTYICNVNHKPSNTKVDKRVEPKSCDKTHTCPPCPAPELLGGPSVFLFPPKPKDTLMISRTPEVTCVVVDVSHEDPEVKFNWYVDGVEVHNAKTKPREEQYNSTYRVVSVLTVLHQDWLNGKEYKCKVSNKALPAPIEKTISKAKGQPREPQVYTLPPSREEMTKNQVSLTCLVKGFYPSDIAVEWESNGQPENNYKTTPPVLDSDGSFFLYSKLTVDKSRWQQGNVFSCSVMHGALHNHYTNESLSLSPGK light: not shown	binds	binds	binds	
IgG1-CAMPATH-1H-E430G-K439E-Q438R (antibody) heavy: QVQLQESGPGLVRPSQTLSLTCTVSGFTFTDFYMNWVRQPPGRGLEWIGFIRDKAKGYTTEYNPSVKGRVTMLVDTSKNQFSLRLSSVTAADTAVYYCAREGHTAAPFDYWGQGSLVTVSSASTKGPSVFPLAPSSKSTSGGTAALGCLVKDYFPEPVTVSWNSGALTSGVHTFPAVLQSSGLYSLSSVVTVPSSSLGTQTYICNVNHKPSNTKVDKRVEPKSCDKTHTCPPCPAPELLGGPSVFLFPPKPKDTLMISRTPEVTCVVVDVSHEDPEVKFNWYVDGVEVHNAKTKPREEQYNSTYRVVSVLTVLHQDWLNGKEYKCKVSNKALPAPIEKTISKAKGQPREPQVYTLPPSREEMTKNQVSLTCLVKGFYPSDIAVEWESNGQPENNYKTTPPVLDSDGSFFLYSKLTVDKSRWQQGNVFSCSVMHGALHNHYTRESLSLSPGK light: not shown	binds	binds	binds	
IgG1-Campath-E430G H310D/K439E (antibody, also called IgG1-CAMPATH-1H-E430G-K439E with H310D; constant region IgG1m(f)-H310D-E430G-K439E) heavy: QVQLQESGPGLVRPSQTLSLTCTVSGFTFTDFYMNWVRQPPGRGLEWIGFIRDKAKGYTTEYNPSVKGRVTMLVDTSKNQFSLRLSSVTAADTAVYYCAREGHTAAPFDYWGQGSLVTVSSASTKGPSVFPLAPSSKSTSGGTAALGCLVKDYFPEPVTVSWNSGALTSGVHTFPAVLQSSGLYSLSSVVTVPSSSLGTQTYICNVNHKPSNTKVDKRVEPKSCDKTHTCPPCPAPELLGGPSVFLFPPKPKDTLMISRTPEVTCVVVDVSHEDPEVKFNWYVDGVEVHNAKTKPREEQYNSTYRVVSVLTVLDQDWLNGKEYKCKVSNKALPAPIEKTISKAKGQPREPQVYTLPPSREEMTKNQVSLTCLVKGFYPSDIAVEWESNGQPENNYKTTPPVLDSDGSFFLYSKLTVDKSRWQQGNVFSCSVMHGALHNHYTQESLSLSPGK light: not shown				no binding (tested: 40 µg/mL)
IgG1-CAMPATH-1H-E430G-S440K-Y436K (antibody, also called IgG1-Campath-E430G Y436K/S440K) heavy: QVQLQESGPGLVRPSQTLSLTCTVSGFTFTDFYMNWVRQPPGRGLEWIGFIRDKAKGYTTEYNPSVKGRVTMLVDTSKNQFSLRLSSVTAADTAVYYCAREGHTAAPFDYWGQGSLVTVSSASTKGPSVFPLAPSSKSTSGGTAALGCLVKDYFPEPVTVSWNSGALTSGVHTFPAVLQSSGLYSLSSVVTVPSSSLGTQTYICNVNHKPSNTKVDKRVEPKSCDKTHTCPPCPAPELLGGPSVFLFPPKPKDTLMISRTPEVTCVVVDVSHEDPEVKFNWYVDGVEVHNAKTKPREEQYNSTYRVVSVLTVLHQDWLNGKEYKCKVSNKALPAPIEKTISKAKGQPREPQVYTLPPSREEMTKNQVSLTCLVKGFYPSDIAVEWESNGQPENNYKTTPPVLDSDGSFFLYSKLTVDKSRWQQGNVFSCSVMHGALHNHKTQKKLSLSPGK light: not shown	binds	binds	binds	
IgG1-CAMPATH-1H-E430G-S440K-Q438R (antibody, also called IgG1-Campath-E430G Q438R/S440K) heavy: QVQLQESGPGLVRPSQTLSLTCTVSGFTFTDFYMNWVRQPPGRGLEWIGFIRDKAKGYTTEYNPSVKGRVTMLVDTSKNQFSLRLSSVTAADTAVYYCAREGHTAAPFDYWGQGSLVTVSSASTKGPSVFPLAPSSKSTSGGTAALGCLVKDYFPEPVTVSWNSGALTSGVHTFPAVLQSSGLYSLSSVVTVPSSSLGTQTYICNVNHKPSNTKVDKRVEPKSCDKTHTCPPCPAPELLGGPSVFLFPPKPKDTLMISRTPEVTCVVVDVSHEDPEVKFNWYVDGVEVHNAKTKPREEQYNSTYRVVSVLTVLHQDWLNGKEYKCKVSNKALPAPIEKTISKAKGQPREPQVYTLPPSREEMTKNQVSLTCLVKGFYPSDIAVEWESNGQPENNYKTTPPVLDSDGSFFLYSKLTVDKSRWQQGNVFSCSVMHGALHNHYTRKKLSLSPGK light: not shown	binds	binds	binds	
IgG1-CAMPATH-1H-E430G-K439E-Y436K (antibody) heavy: QVQLQESGPGLVRPSQTLSLTCTVSGFTFTDFYMNWVRQPPGRGLEWIGFIRDKAKGYTTEYNPSVKGRVTMLVDTSKNQFSLRLSSVTAADTAVYYCAREGHTAAPFDYWGQGSLVTVSSASTKGPSVFPLAPSSKSTSGGTAALGCLVKDYFPEPVTVSWNSGALTSGVHTFPAVLQSSGLYSLSSVVTVPSSSLGTQTYICNVNHKPSNTKVDKRVEPKSCDKTHTCPPCPAPELLGGPSVFLFPPKPKDTLMISRTPEVTCVVVDVSHEDPEVKFNWYVDGVEVHNAKTKPREEQYNSTYRVVSVLTVLHQDWLNGKEYKCKVSNKALPAPIEKTISKAKGQPREPQVYTLPPSREEMTKNQVSLTCLVKGFYPSDIAVEWESNGQPENNYKTTPPVLDSDGSFFLYSKLTVDKSRWQQGNVFSCSVMHGALHNHKTQESLSLSPGK light: not shown	binds	binds	binds	
IgG1-CAMPATH-1H-E430G-S440K-Y436N (antibody) heavy: QVQLQESGPGLVRPSQTLSLTCTVSGFTFTDFYMNWVRQPPGRGLEWIGFIRDKAKGYTTEYNPSVKGRVTMLVDTSKNQFSLRLSSVTAADTAVYYCAREGHTAAPFDYWGQGSLVTVSSASTKGPSVFPLAPSSKSTSGGTAALGCLVKDYFPEPVTVSWNSGALTSGVHTFPAVLQSSGLYSLSSVVTVPSSSLGTQTYICNVNHKPSNTKVDKRVEPKSCDKTHTCPPCPAPELLGGPSVFLFPPKPKDTLMISRTPEVTCVVVDVSHEDPEVKFNWYVDGVEVHNAKTKPREEQYNSTYRVVSVLTVLHQDWLNGKEYKCKVSNKALPAPIEKTISKAKGQPREPQVYTLPPSREEMTKNQVSLTCLVKGFYPSDIAVEWESNGQPENNYKTTPPVLDSDGSFFLYSKLTVDKSRWQQGNVFSCSVMHGALHNHNTQKKLSLSPGK light: not shown	binds	binds	binds	
IgG1-CAMPATH-1H-E430G-S440K-Q438N (antibody) heavy: QVQLQESGPGLVRPSQTLSLTCTVSGFTFTDFYMNWVRQPPGRGLEWIGFIRDKAKGYTTEYNPSVKGRVTMLVDTSKNQFSLRLSSVTAADTAVYYCAREGHTAAPFDYWGQGSLVTVSSASTKGPSVFPLAPSSKSTSGGTAALGCLVKDYFPEPVTVSWNSGALTSGVHTFPAVLQSSGLYSLSSVVTVPSSSLGTQTYICNVNHKPSNTKVDKRVEPKSCDKTHTCPPCPAPELLGGPSVFLFPPKPKDTLMISRTPEVTCVVVDVSHEDPEVKFNWYVDGVEVHNAKTKPREEQYNSTYRVVSVLTVLHQDWLNGKEYKCKVSNKALPAPIEKTISKAKGQPREPQVYTLPPSREEMTKNQVSLTCLVKGFYPSDIAVEWESNGQPENNYKTTPPVLDSDGSFFLYSKLTVDKSRWQQGNVFSCSVMHGALHNHYTNKKLSLSPGK light: not shown	binds	binds	binds	
IgG1-CAMPATH-1H-E430G-K439E-Y436N (antibody, also called IgG1-Campath-E430G Y436N/K439E) heavy: QVQLQESGPGLVRPSQTLSLTCTVSGFTFTDFYMNWVRQPPGRGLEWIGFIRDKAKGYTTEYNPSVKGRVTMLVDTSKNQFSLRLSSVTAADTAVYYCAREGHTAAPFDYWGQGSLVTVSSASTKGPSVFPLAPSSKSTSGGTAALGCLVKDYFPEPVTVSWNSGALTSGVHTFPAVLQSSGLYSLSSVVTVPSSSLGTQTYICNVNHKPSNTKVDKRVEPKSCDKTHTCPPCPAPELLGGPSVFLFPPKPKDTLMISRTPEVTCVVVDVSHEDPEVKFNWYVDGVEVHNAKTKPREEQYNSTYRVVSVLTVLHQDWLNGKEYKCKVSNKALPAPIEKTISKAKGQPREPQVYTLPPSREEMTKNQVSLTCLVKGFYPSDIAVEWESNGQPENNYKTTPPVLDSDGSFFLYSKLTVDKSRWQQGNVFSCSVMHGALHNHNTQESLSLSPGK light: not shown	binds	binds	binds	
